PMC4004960 (Cancer cell, 2014)
Ends that are not written are not given here.

Target: BRD4-BD2 (recombinant, NMR and fluorescence anisotropy) (UniProt O60885 333-460)
Assay: fluorescence polarisation

Ki: 800 µM
Binder: SPAQGK(Ac)RGK(Ac)KSA (peptide, UniProt Q15672 68-79, looked up) [Twist-K73ac/K76ac peptide (residues 68-79)]
